Biological target: the molecule itself
Experiment: gel and Western blot of high molecular weight species; purified recombinant GST-(GA)50 beside GST alone (Online Resource 1a); samples heated in Laemmli's buffer

B1: recombinant GST-(GA)50 protein (other, human)
chain: GAGAGAGAGAGAGAGAGAGAGAGAGAGAGAGAGAGAGAGAGAGAGAGAGAGAGAGAGAGAGAGAGAGAGAGAGAGAGAGAGAGAGAGAGAGAGAGAGAGA
notes: poly(GA) c9RAN dipeptide repeat, 50 repeats; (GA)50 cDNA in pGEX-6P-1 (BamHI/XhoI); RAN-translated from the G4C2 repeat of C9ORF72, not part of the C9ORF72 protein; also called poly(GA); source: E. coli Rosetta(DE3)pLysS, purified (Glutathione Sepharose 4B, eluted with glutathione, dialysed); not shown: GST, N-terminal, kept
- binding result: binds
